Here are results for one molecule from patent US20250262210A1 (TRUSTEES OF COLUMBIA UNIVERSITY IN THE CITY OF NEW YORK, published 2025).

The target in one test is T1, RALGAPB (human, UniProt Q86X10 1-1494, limits assumed).
T1 sequence (looked up): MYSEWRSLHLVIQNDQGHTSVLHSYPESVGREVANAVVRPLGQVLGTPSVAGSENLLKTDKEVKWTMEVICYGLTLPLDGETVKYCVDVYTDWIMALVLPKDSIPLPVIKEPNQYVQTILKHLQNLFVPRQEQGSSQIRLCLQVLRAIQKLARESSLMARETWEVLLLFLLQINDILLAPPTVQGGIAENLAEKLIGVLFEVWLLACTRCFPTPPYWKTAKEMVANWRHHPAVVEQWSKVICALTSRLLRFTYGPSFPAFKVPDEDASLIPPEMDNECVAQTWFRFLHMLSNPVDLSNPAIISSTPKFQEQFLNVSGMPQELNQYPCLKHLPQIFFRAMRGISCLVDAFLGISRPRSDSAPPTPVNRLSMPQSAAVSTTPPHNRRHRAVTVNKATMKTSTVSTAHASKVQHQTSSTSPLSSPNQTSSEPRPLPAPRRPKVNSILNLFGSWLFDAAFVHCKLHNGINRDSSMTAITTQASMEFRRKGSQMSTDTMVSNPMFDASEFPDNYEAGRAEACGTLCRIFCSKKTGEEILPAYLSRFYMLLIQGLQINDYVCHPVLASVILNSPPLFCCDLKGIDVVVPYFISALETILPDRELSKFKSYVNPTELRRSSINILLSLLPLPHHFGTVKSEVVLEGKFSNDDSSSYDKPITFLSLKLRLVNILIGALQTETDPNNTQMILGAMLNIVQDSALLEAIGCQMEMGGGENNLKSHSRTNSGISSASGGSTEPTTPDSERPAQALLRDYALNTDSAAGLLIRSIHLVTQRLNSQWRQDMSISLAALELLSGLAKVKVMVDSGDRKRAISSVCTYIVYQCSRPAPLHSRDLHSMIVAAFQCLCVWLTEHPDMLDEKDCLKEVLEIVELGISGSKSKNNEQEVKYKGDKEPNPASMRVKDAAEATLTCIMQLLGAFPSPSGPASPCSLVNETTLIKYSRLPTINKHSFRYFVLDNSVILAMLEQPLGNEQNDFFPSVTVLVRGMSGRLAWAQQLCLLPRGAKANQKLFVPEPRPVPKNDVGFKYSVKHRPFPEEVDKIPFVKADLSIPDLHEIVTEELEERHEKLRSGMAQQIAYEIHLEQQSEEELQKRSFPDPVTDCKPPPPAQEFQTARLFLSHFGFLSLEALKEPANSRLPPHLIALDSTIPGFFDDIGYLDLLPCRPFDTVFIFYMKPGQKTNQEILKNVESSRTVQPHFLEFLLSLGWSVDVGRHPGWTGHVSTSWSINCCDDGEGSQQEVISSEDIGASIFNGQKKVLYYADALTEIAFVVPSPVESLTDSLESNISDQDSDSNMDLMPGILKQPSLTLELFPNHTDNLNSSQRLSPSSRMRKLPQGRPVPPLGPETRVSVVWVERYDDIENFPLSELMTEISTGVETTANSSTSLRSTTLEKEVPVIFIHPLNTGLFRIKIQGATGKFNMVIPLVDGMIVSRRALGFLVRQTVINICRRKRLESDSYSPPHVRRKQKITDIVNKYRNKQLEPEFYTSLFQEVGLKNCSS
The test can be described thus: IP/MS, LZTR1 wild type-FLAG, U87. A digest of the protocol:
(§1)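 Extracted peptides in 3% acetonitrile/0.1% formic acid ran on a 50 cm C18 column into an Orbitrap Fusion, with MaxQuant identification and spectral counting.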

A further test addresses ARHGAP31 (human, UniProt Q2M1Z3 1-1444). The test can be described thus: IP/MS, LZTR1 wild type-FLAG, U87. A digest of the protocol: as §1

Chain of ARHGAP31 (Q2M1Z3 whole entry): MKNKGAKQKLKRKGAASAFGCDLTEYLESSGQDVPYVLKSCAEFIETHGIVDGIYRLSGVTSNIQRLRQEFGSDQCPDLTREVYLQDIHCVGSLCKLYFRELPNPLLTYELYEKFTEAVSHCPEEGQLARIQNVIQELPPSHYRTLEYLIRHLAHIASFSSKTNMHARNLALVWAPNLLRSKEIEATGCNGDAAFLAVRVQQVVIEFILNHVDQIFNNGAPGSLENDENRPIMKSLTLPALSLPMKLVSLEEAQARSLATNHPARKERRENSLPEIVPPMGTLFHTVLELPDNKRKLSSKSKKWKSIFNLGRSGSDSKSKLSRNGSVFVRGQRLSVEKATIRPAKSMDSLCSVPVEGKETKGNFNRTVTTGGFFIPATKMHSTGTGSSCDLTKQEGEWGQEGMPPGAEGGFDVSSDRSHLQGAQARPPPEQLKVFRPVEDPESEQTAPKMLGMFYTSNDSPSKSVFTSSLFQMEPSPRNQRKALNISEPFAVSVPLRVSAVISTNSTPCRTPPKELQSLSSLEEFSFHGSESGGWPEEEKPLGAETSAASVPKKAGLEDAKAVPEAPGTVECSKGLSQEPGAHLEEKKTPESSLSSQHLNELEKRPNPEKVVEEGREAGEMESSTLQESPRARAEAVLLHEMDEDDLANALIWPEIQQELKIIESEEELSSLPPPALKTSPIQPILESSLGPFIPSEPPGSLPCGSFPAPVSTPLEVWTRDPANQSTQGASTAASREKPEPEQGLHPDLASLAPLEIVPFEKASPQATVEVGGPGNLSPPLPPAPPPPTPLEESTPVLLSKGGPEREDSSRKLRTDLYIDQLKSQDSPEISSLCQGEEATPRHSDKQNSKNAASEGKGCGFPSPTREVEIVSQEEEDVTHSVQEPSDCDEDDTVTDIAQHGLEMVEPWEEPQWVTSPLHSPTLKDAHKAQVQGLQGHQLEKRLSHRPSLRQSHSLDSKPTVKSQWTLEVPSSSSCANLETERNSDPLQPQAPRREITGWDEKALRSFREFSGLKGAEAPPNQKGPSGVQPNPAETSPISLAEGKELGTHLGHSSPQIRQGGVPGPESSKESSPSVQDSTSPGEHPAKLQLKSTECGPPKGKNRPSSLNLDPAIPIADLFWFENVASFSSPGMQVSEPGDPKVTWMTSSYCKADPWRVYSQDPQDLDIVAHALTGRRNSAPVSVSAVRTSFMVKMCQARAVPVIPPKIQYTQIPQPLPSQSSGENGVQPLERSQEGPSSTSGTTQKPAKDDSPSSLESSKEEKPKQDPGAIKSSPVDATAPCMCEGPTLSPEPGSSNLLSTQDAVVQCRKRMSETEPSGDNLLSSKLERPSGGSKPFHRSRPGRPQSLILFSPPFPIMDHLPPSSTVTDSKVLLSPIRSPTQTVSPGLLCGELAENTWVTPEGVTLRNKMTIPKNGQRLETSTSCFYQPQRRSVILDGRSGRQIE

B1: LZTR1-FLAG (other, human, UniProt Q8N653 1-840, looked up)
chain: MAGPGSTGGQIGAAALAGGARSKVAPSVDFDHSCSDSVEYLTLNFGPFETVHRWRRLPPCDEFVGARRSKHTVVAYKDAIYVFGGDNGKTMLNDLLRFDVKDCSWCRAFTTGTPPAPRYHHSAVVYGSSMFVFGGYTGDIYSNSNLKNKNDLFEYKFATGQWTEWKIEGRLPVARSAHGATVYSDKLWIFAGYDGNARLNDMWTIGLQDRELTCWEEVAQSGEIPPSCCNFPVAVCRDKMFVFSGQSGAKITNNLFQFEFKDKTWTRIPTEHLLRGSPPPPQRRYGHTMVAFDRHLYVFGGAADNTLPNELHCYDVDFQTWEVVQPSSDSEVGGAEVPERACASEEVPTLTYEERVGFKKSRDVFGLDFGTTSAKQPTQPASELPSGRLFHAAAVISDAMYIFGGTVDNNIRSGEMYRFQFSCYPKCTLHEDYGRLWESRQFCDVEFVLGEKEECVQGHVAIVTARSRWLRRKITQARERLAQKLEQEAAPVPREAPGVAAGGARPPLLHVAIREAEARPFEVLMQFLYTDKIKYPRKGHVEDVLLIMDVYKLALSFQLCRLEQLCRQYIEASVDLQNVLVVCESAARLQLSQLKEHCLNFVVKESHFNQVIMMKEFERLSSPLIVEIVRRKQQPPPRTPLDQPVDIGTSLIQDMKAYLEGAGAEFCDITLLLDGHPRPAHKAILAARSSYFEAMFRSFMPEDGQVNISIGEMVPSRQAFESMLRYIYYGEVNMPPEDSLYLFAAPYYYGFYNNRLQAYCKQNLEMNVTVQNVLQILEAADKTQALDMKRHCLHIIVHQFTKVSKLPTLRSLSQQLLLDIIDSLASHISDKQCAELGADI
notes: Expressed in HEK 293T, HeLa or U87 cells; used as cell lysate; also called LZTR1 wild type-FLAG; LZTR1 WT; not shown: FLAG tag at the C-terminus
Turning to B1, the binding result with RALGAPB and in the test with ARHGAP31 was “binds” throughout.
